Measurements as given in the nanobody polyreactivity screen of Harvey et al. (2022).

Test: yeast display, Sf9 membrane polyspecificity reagent, FACS + sequencing; frameworks hold sequencing errors
Procedure, shortened: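 Sorting gates, low and high (top ~1%), were placed on anti-HA fluorescence to track expression and on streptavidin fluorescence to track reagent binding. A clone's polyreactivity label is taken from the gate it came out of. The reagent was 10% biotinylated, detergent-solubilized Sf9 membrane, applied for 1 hour at 4 °C to galactose-induced yeast display cells.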

| Sequence | polyreactivity (PSR sort gate) |
| --- | --- |
| QVQLVESGGGLVQAGGSLRLSCAASGSIFSPNAMGWYRQAPGKERELVAAISRGDSTYYADSVKGRFTISRDNAKNTVYLQMNSLKPEDTAVYYCAATYLRRPVSGAYRSEYNYWGQGTQVTVSS | high polyreactivity |
| QVQLVESGGGLVQAGGSLRLSCAASGSIFSPNAMGWYRQAPGKERQLVAAIRSGGSTYYADSVKGRFTISRDNAKNSVYLQMNSLKPADTAVYYCAADTYTYYYYLARYYYWGQGTQVTVSS | low polyreactivity |
| QVQLVESGGGLVQAGGSLRLSCAASGSIFSPYAMGWYRQAPGKERELVAAISWTGGRTYYADSVKGRFTISRDNAKNTVYLQMNSLKPEDTAVYYGAAAYYGTRPYGYWGQGTQVTVSS | high polyreactivity |
| QVQLVESGGGLVQAGGSLRLSCAASGSIFSPYAMGWYRQAPGKERELVAAITDSGGSTYYADSVKGRFTISRDNAKYTVYLQMNSLKPEDTAVYYCAADLRYWSWAFDYWGQGTQVTVSS | low polyreactivity |
| QVQLVESGGGLVQAGGSLRLSCAASGSIFSPYTMGWYRQAPGKERELVAAMSASGGSTYYADSVKGRFTISRDNAKNTVYLQMNSLKPEDTAVYYCNVYRITRHSYNCGFDYWGQGTQVTVSS | low polyreactivity |
| QVQLVESGGGLVQAGGSLRLSCAASGSIFSQYAMGWYRQAPGKERELVAAITYGGGSTYYADSVKGRFTISRDNAKNTVYFQMNSLKPEDTAVYYCAKEFKYWGYPYDYWGQGTQVTVSS | low polyreactivity |
| QVQLVESGGGLVQAGGSLRLSCAASGSIFSQYAMGWYRQAPGKERELVDAITYGGGSTYYADSVKGRFTISRDNAKNTVYLQMNSLKPEDTAVYYCNADGWNTYIGPRRYRYDYWGQGTQVTVSS | low polyreactivity |
| QVQLVESGGGLVQAGGSLRLSCAASGSIFSRIAMGWYRKAPGKERELVAAISGRGGSTYYADSVKGRFTISRDNAKNTVYLHMKSLKPEDTAVYYCAKAVNYRLSQAMDYWGQGTQVTVSS | high polyreactivity |
| QVQLVESGGGLVQAGGSLRLSCAASGSIFSRNAMGWYRQAPGKEREFVAAISWSGGRTYYADSVKGRFTISRDNAKNTVYLQMNSLKPEDTAVYYCSKGYSYHWYHVTFYSWGQGTQVTVSS | high polyreactivity |
| QVQLVESGGGLVQAGGSLRLSCAASGSIFSRNAMGWYRQAPGKEREFVARISWSSTSTNYADSVKGRFTISRDNAKNPVYLQMNSLKPEDTAVYYCAADFRGDRRFDYWGQGTQVTVSS | low polyreactivity |
| QVQLVESGGGLVQAGGSLRLSCAASGSIFSRNAMGWYRQAPGKERELVAAISRRGGSTYYADSVKGRFTISRDNAKITVYLQMNSLKPEDTAVYYCAAPFEAVRSYYWGQGTQVTVSS | high polyreactivity |
| QVQLVESGGGLVQAGGSLRLSCAASGSIFSRNAMGWYRQAPGKERELVASMSWRGGSTNYADSVKGRFTISRDNAKNTVYLQMNSLKPEDTAVYYCNAPYRHQPGGGYWGQGTQVTVSS | low polyreactivity |
| QVQLVESGGGLVQAGGSLRLSCAASGSIFSRNVMGGSRQAPGKERELVAAITGSGGRTYYADSVKGRFTISRDNAKNTVYLQMNSLKPEDTAVYYCAKSRPGPYDYWGQGTQVTVSS | high polyreactivity |
| QVQLVESGGGLVQAGGSLRLSCAASGSIFSRYAMGWYRQAPGKEMELVAAISSRGGSTSYADSVKGRFTISRDYAKNTVYLQMNSLQPEDTAVYYCGRVYYAGPRLYRDFGFDYWGQGTQVTVSS | high polyreactivity |
| QVQLVESGGGLVQAGGSLRLSCAASGSIFSRYAMGWYRQAPGKERELVAAISKSGGTTYYADSVKGRFTISRDNAKNTVYLQMNSLKPEDTAVYYCNAKRYRNGSIGMGYWGQGTQVTVSS | high polyreactivity |
| QVQLVESGGGLVQAGGSLRLSCAASGSIFSRYTMGWYRQAPGKERELVARINSSGTSTYYADSVQGRFTIARDNAKNTVYLQMNSLKPEDTAVYYCAAQVDTQYWDFDYWGQGTQVTVSS | low polyreactivity |
| QVQLVESGGGLVQAGGSLRLSCAASGSIFSRYTMGWYRQATGKERELVAAITSSGGSTYYADSVKGRFTISRDNAKNTVYLQMNSLKPEDTAVYYCNAVRRQWYWTAWFSARGYGYWGQGTQVTVSS | high polyreactivity |
